Measurements taken from paper PMC12737490, “Beta Toxins Isolated from the Scorpion Centruroides hirsutipalpus (Scorpiones; Buthidae) Affect the Function of Sodium Channels of Mammals” (Toxins, 2025).

How the values were obtained:
CD1 strain albino mice = experiment: Toxicity and lethality tests in mice (intraperitoneal); assay type: in vivo, Mus musculus; design: key to Toxicity: Non-toxic: “non-toxic” when the mice exhibited normal physiological and behavioral patterns indistinguishable from the control group; Toxic: “toxic” when the animals developed signs of intoxication, such as excitability, excessive salivation, transient paralysis, breathing difficulty, diarrhea, impaired coordination or movement, or excessive tearing. These symptoms would appear after administration but fully resolve within 24 h without lasting effects; Lethal: “lethal” when the mice showed severe manifestations of intoxication, including progressive paralysis, marked respiratory distress, convulsions, or complete loss of mobility, leading to death during the observation period as a direct consequence of exposure; settings: 20 g CD1 mice; for symptoms in affected animals / time to death after injection / lethality in murine models: 30 µg in 100 µL PBS; for lethality in murine models / Toxicity: monitored 24 h, in triplicate; for Toxicity: 30 µg of each fraction in 100 µL PBS
Method: Toxicity assays. Toxicity and lethality tests of FPLC and HPLC fractions containing the toxins were conducted on CD1 strain albino mice (Mus musculus) weighing 20 g. The mice received intraperitoneal injections of 30 µg of each fraction diluted in 100 µL of Phosphate-buffered saline (PBS), while control mice were injected with sterile water. The mice were monitored for 24 h. […] A treatment was categorized as “toxic” when the animals developed signs of intoxication, such as excitability, excessive salivation, transient paralysis, breathing difficulty, diarrhea, impaired coordination or movement, or excessive tearing. These symptoms would appear after administration but fully resolve within 24 h without lasting effects. […] The experiments were conducted in triplicate. The Bioethics Committee approved the Animal Welfare protocol used in this study (Project 413).

hNav 1.2 = experiment: Patch-clamp macroscopic sodium currents, hNav1.2 in HEK cells; assay type: cell-based, human; settings: 200 nM toxin; for I/Imax (residual peak current) / slope of activation after toxin / V0.5 of activation after toxin / slope of inactivation after toxin / V0.5 of inactivation after toxin: mean ± SE of 5 cells (3–5 cells); for slope of activation after toxin: control 5.4± 0.3 (Chirp7 cells), 7.6 ± 0.4 (Chirp9 cells); for slope of activation after toxin / slope of inactivation after toxin / V0.5 of inactivation after toxin: Chirp9 value marked * (p<0.05); for V0.5 of activation after toxin: control -21.1 ± 0.4 (Chirp7 cells), -26.5 ± 0.5 (Chirp9 cells); for slope of inactivation after toxin / V0.5 of inactivation after toxin: steady-state inactivation; for slope of inactivation after toxin: control 6 ± 0.2 (Chirp7 cells), 5.6 ± 0.2 (Chirp9 cells); for V0.5 of inactivation after toxin: control -56.1 ± 0.2 (Chirp7 cells), -55.5 ± 0.3 (Chirp9 cells)
Method: Recordings of macroscopic currents from sodium channels. Human voltage-gated sodium channels (hNav 1.1, hNav 1.2 and hNa 1.6) were stably expressed in HEK cells. Cells were maintained at 37 ◦C with 5% CO2 in a humidified atmosphere. The growth medium consisted of high-glucose Dulbecco’s Modified Eagle Medium (DMEM, Sigma Aldrich, Naucalpan de Juarez, Estado de Mexico, Mexico), supplemented with 10% Fetal Bovine Serum (ByProductos, Guadalajara, Jalisco, Mexico) and 500 μg/mL of the antibiotic G418 (Sigma Aldrich, Naucalpan de Juarez, Estado de Mexico, Mexico). The extracellular solution was composed of (in mM): 130 NaCl, 5 KCl, 2 CaCl2, 2 MgCl2, 10 HEPES, and 5 glucose, with the pH adjusted to 7.3 using NaOH. The intracellular solution contained (in mM): 105 CsF, 27 CsCl, 5 NaCl, 2 MgCl2, 10 EGTA, and 10 HEPES, with the pH also adjusted to 7.3 with CsOH. Solutions were delivered to the patched cell via an active perfusion system connected to a variable-speed syringe pump (Model A-99, Razel Scientific Instruments, Fairfax, VT, USA), with a perfusion rate of approximately 1 μL/s. Patch pipettes were made from borosilicate glass capillaries (Warner Instruments, Hamden, CT, USA) using a vertical puller (Model P-30, Sutter Instrument, Novato, CA, USA). The pipettes were filled with the internal solution and had resistance ranging from 1.5 and 3 MΩ. Sodium currents were elicited by 100 ms depolarization ranging from −110 to 30 mV in 10 mV steps, followed by a fully activating step at −10 mV for 50 ms. To better appreciate the effects of scorpion β-sodium toxins, channels were primed by means of a 5 ms depolarization at 50 mV, applied 50 ms before the depolarization steps, as previously described in Cestele et al. 1998 [17]. To ensure complete recovery from inactivation, cells were maintained at −120 mV for 280 ms before each step, while holding potential was set at −100 mV. Currents were acquired using a MultiClamp 700A amplifier and a DigiData 1440A digitizer (Molecular Devices, CA, USA).
For the activation curve, conductance (G) was calculated from current (I) elicited during depolarization steps by means of the equation G = I/(Vm − ENa), where I is the current elicited at membrane potential Vm, and ENa is the reversal potential of Na^+ ions, calculated experimentally for each cell. Conductance was normalized to its maximal level and plotted against the corresponding membrane potential. For the steady-state inactivation curve, currents elicited at −10 mV (after preconditioning depolarization from −110 to 30 mV) were plotted against the preconditioning potentials. Data from activation and from steady-state inactivation were fitted using a Boltzmann equation: y = A2 + (A1 − A2)/(1 + exp((x − x0)/dx)) where A1 is the initial value, A2 is the final value, x0 is the potential of half-activation (or half-inactivation) and dx is the slope. […]
Figure S1. Recordings of macroscopic currents from sodium channels. Sodium currents in B) were elicited by the stimulation protocol depicted in A): currents were elicited by 100 ms depolarization ranging from -110 to 30 mV in 10 mV steps, followed by a fully activating step at -10 mV for 50 ms.
A 5 ms depolarization at 50 mV was applied 50 ms before the depolarization steps to primed the channels. Peak currents obtained during the step depolarization from -110 to 30 mV (C and D, black circle in control and open circle after toxin application) were used to calculate the conductance and construct the activation curves. Currents recorded during the step at -10 mV (C and D, black square in control and open square for the toxin), were used to construct the inactivation curves. […]

antibody = experiment: Antibody recognition of Chirp9 compared with Cl13; assay type: binding; settings: effect of the two amino acid differences between Chirp9 and Cl13
Description: Evaluation of the recognition capability of scFvs for the toxins of C. hirsutipalpus. Surface plasmon resonance (SPR) evaluations of the recognition capability of scFvs for the toxins of C. hirsutipalpus. The toxins from C. hirsutipalpus were used to evaluate the recognition capacity of antibody fragments previously generated against Mexican scorpion toxins in a biosensor that detects molecular interactions in real time (Biacore X100, Uppsala, Sweden). The toxins Chirp7 and Chirp9 were covalently immobilized onto the surface of CM5 Chips using the amino coupling kit, achieving binding levels of 200 RUs (1 RU corresponds to a change in surface concentration of approximately one pg of bound mass per mm^2). Each pure toxin was solubilized in 10 mM 2-(N-morpholino) ethanesulfonic acid (pH 6) and bound to cell 2. Cell 1 in the sensor (without bound toxin) was used as a control. The scFvs LR, 10FG2, 11F, HV, and RAS 27 [21] were evaluated for their ability to recognize each toxin.

Molecule | symptoms in affected animals (CD1 strain albino mice) | time to death after injection (CD1 strain albino mice) | lethality in murine models (CD1 strain albino mice) | lethality in murine models (CD1 strain albino mice; listed as FII.7) | Toxicity (CD1 strain albino mice) | I/Imax (residual peak current) (hNav 1.2) | slope of activation after toxin (hNav 1.2) | V0.5 of activation after toxin (hNav 1.2) | slope of inactivation after toxin (hNav 1.2) | V0.5 of inactivation after toxin (hNav 1.2) | lethality in murine models (CD1 strain albino mice; listed as FII.9) | effect on inactivation (hNav 1.2) | antibody recognition of Chirp9 versus Cl13 (antibody)
Chirp7 (disulfide (positions not given here); also: four disulfide bridges, pairing not given here) KEGYLVNHSTGCKYECFKLGDNDYCLRECRQQYGKGAGGYCYAFGCWCTHLYEQAVVWPLPKKTCN-NH2 | hyperexcitability, tremors, piloerection, hypersalivation, transient paralysis, dyspnea, motor incoordination, severe respiratory distress, and, ultimately, death | approximately 20 min | pronounced lethality | particularly lethal effects | Lethal | 1 ± 0.02 | 5.9 ± 0.3 | -22 ± 0.4 mV | 6.2 ± 0.2 | -56.9 ± 0.2 mV |  |  | 
Chirp9 (disulfide (positions not given here); also: four disulfide bridges, pairing not given here) KEGYIVDYHTGCKYTCAKLGDNDYCVRECRLRYYQSAHGYCYAFACWCTHLYEAAVVWPLPNKRCK-NH2 | hyperexcitability, tremors, piloerection, hypersalivation, transient paralysis, dyspnea, motor incoordination, severe respiratory distress, and, ultimately, death | approximately 20 min | pronounced lethality |  | Lethal | 0.85 ± 0.07 | 10.8 ± 0.4 | -26.8 ± 0.5 mV | 7.6 ± 0.4 | -61.8 ± 0.4 mV | particularly lethal effects | shifted inactivation to more negative potential | significantly reduce antibody recognition
